Reference: patent US20230074735

Target: Taq DNA polymerase (Thermus aquaticus) (UniProt P19821)
Assay: inhibition
Conditions: contains RNA cleavage site; about half amplicon yield; activity increased to some degree with 10 uM Pb2+; mechanism unclear, possibly stem recognition by polymerase

Chain of Taq DNA polymerase (Thermus aquaticus) (P19821 whole entry): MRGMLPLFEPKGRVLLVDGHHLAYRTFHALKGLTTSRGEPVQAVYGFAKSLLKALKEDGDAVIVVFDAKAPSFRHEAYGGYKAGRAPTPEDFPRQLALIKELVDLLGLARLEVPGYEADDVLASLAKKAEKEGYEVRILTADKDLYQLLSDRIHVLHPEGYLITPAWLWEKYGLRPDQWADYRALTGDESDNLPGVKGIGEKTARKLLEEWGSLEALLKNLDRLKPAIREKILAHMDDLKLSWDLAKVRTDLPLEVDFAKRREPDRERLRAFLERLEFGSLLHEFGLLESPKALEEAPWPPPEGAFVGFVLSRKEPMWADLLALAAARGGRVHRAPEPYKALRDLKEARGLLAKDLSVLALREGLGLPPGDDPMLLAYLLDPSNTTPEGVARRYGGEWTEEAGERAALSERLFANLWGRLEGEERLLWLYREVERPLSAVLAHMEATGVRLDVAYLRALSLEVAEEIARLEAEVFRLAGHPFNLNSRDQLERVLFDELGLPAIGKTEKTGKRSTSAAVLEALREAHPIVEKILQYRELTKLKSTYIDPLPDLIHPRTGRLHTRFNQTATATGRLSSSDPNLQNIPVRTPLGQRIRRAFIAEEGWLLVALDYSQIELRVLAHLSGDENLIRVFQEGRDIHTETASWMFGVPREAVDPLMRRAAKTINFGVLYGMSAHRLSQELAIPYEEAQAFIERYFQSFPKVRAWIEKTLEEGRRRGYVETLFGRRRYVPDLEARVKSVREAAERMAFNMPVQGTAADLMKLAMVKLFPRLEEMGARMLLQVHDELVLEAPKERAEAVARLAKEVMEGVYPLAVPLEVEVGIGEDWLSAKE

For GR5 DNAzyme (71 nt), which activity (% amplicon vs polymerase only) is on record?
Its activity (% amplicon vs polymerase only) is 50.
